From article PMC6697062 come the findings set out here.

Assay [1] addresses C6B/IGKV3-15*01 one-armed SEEDbody. Description: BLI; C6B oaSEEDbody on anti-Fab tips; association with 100 nM CEACAM6 at pH 7.4, dissociation at pH 5.0. Background: In BLI a coated tip is dipped into the sample, and binding shifts an interference pattern.
Assay [2] deals with C6B/CV2 one-armed SEEDbody. The description is as above.
The target in assay [3] is C6B/IGKV3-15*01 one-armed SEEDbody. Description: BLI; C6B oaSEEDbody on anti-Fab tips; association with 100 nM CEACAM6 at pH 7.4, dissociation at pH 7.4; 1:1 model.
In assay [4] the target is C6B/CV2 one-armed SEEDbody. Described as above.
The target of assay [5] is C6B/IGKV3-15*01 one-armed SEEDbody. Description: BLI; C6B oaSEEDbody on anti-Fab tips; association with 100 nM CEACAM6 at pH 7.4, dissociation at pH 6.0.
For assay [6], the target named is C6B/CV2 one-armed SEEDbody. The description is as above.
Assay [7] concerns the target C5A + IGKV3-15*01 one-armed SEEDbody. As to the kind of experiment: BLI; oaSEEDbody on anti-human Fc (AHC) tips; association with 100 nM CEACAM5 at pH 7.4, dissociation at pH 7.4 in kinetic buffer (PBS, 0.1% Tween 20, 1% BSA); 30 C; 1:1 model.
Assay [8] has as its target C5A + K39 one-armed SEEDbody. The description is as above.
The target in assay [9] is C5A + CV2 one-armed SEEDbody. Described as above.
Assay [10] addresses C5A + CV1 one-armed SEEDbody. The assay is described as above.
Assay [11] concerns the target C5A + K40 one-armed SEEDbody. Described as above.
Assay [12] has as its target C5A + CV3 one-armed SEEDbody. The assay is described as above.

Chain of CEACAM6 (P40199 35-320): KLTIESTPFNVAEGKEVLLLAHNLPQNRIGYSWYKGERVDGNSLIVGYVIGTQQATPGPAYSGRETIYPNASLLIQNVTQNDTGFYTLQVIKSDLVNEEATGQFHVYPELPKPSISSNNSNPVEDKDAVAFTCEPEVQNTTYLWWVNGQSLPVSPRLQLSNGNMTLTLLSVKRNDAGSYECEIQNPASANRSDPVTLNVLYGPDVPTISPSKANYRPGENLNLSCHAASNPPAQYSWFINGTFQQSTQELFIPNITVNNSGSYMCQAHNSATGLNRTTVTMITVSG

As usually defined, the koff is the rate constant with which the complex falls apart. Higher therefore signals fast dissociation. Broadly, the Kd is the concentration at which binding is half-saturated. For “CEACAM6 (from UniProt P40199 35-320) (natural protein)”, the koff in assay [1] was 0.000361 s⁻¹; in [2], 0.000768 s⁻¹; in assay [3], 0.000158 s⁻¹; in assay [4] it was 0.000262 s⁻¹; in assay [5], 0.00019 s⁻¹; in assay [6] it was 0.000142 s⁻¹. Moreover, the Kd in assay [3] was found to be 8.77 nM; in [4] it was 7.73 nM.

For the substance “recombinant human His-tagged CEACAM5 (from UniProt P06731 35-685) (natural protein)”, the Kd in [7] was found to be 0.9 nM; in assay [8], 4.16 nM; in assay [9], 4.14 nM; in assay [10], 4.11 nM; in assay [11] it was 3.12 nM; in [12], 2.55 nM.
